# Measurements: patent publication US20050112723A1, “Mammalian cell lines specifically deficient in O-linked glycosylation” (priority 2003, published 2005)
# Numbering of substitutions follows the chain as printed. “Also recorded” adds a separate entry of the source.
# B1: WTeGALE: wild-type E. coli GALE (UDP-galactose 4-epimerase) (protein)
# chain: MRVLVTGGSGYIGSHTCVQLLQNGHDVIILDNLCNSKRSVLPVIERLGGKHPTFVEGDIRNEALMTEILHDHAIDTVIHFAGLKAVGESVQKPLEYYDNNVNGTLRLISAMRAANVKNFIFSSSATVYGDQPKIPYVESFPTGTPQSPYGKSKLMVEQILTDLQKAQPDWSIALLRYFNPVGAHPSGDMGEDPQGIPNNLMPYIAQVAVGRRDSLAIFGNDYPTEDGTGVRDYIHVMDLADGHVVAMEKLANKPGVHIYNLGAGVGNSVLDVVNAFSKACGKPVNYHFAPRREGDLPAYWADASKADRELNWRVTRTLDEMAQDTWHWQSRHPQGYPD
# modifications: Eschesichia Coli
# B2: WThGALE: wild type human GALE (UDP-galactose 4-epimerase) (protein, UniProt Q14376 1-348, looked up)
# UDP-glucose 4-epimerase: MAEKVLVTGGAGYIGSHTVLELLEAGYLPVVIDNFHNAFRGGGSLPESLRRVQELTGRSVEFEEMDILDQGALQRLFKKYSFMAVIHFAGLKAVGESVQKPLDYYRVNLTGTIQLLEIMKAHGVKNLVFSSSATVYGNPQYLPLDEAHPTGGCTNPYGKSKFFIEEMIRDLCQADKTWNAVLLRYFNPTGAHASGCIGEDPQGIPNNLMPYVSQVAIGRREALNVFGNDYDTEDGTGVRDYIHVVDLAKGHIAALRKLKEQCGCRIYNLGTGTGYSVLQMVQAMEKASGKKIPYKVVARREGDVAACYANPSLAQEELGWTAALGLDRMCEDLWRWQKQNPSGFGTQA
# B3: C307YhGALE: wild type hGALE except a tyrosine residue has been substituted for cysteine at position 307 (protein)
# chain: B2 UDP-glucose 4-epimerase with C307Y
# modifications: Human polypeptide
# Legend:
# [1] = system: ldlD cells; conditions: Krieger et al. (1989); cited from earlier work
# [2] = system: wild-type CHO cells; conditions: Krieger et al. (1989); cited from earlier work
# [3] = system: UDP-galNAc/UDP-glcNAc interconversion; assay: In vitro assay for UDP-GalNAc, purified enzymes; format: biochemical; conditions: purified enzyme expressed in Pichia pastoris, FIG. 1
# Protocol: (§1) In Vitro Assay for UDP-GalNAc: The radioactive method for detecting conversion of UDP-GalNAc to UDP-GIcNAc was performed essentially as described above for UDP-Gal, with the following assay components per 25 μl of reaction: 8.75 μl of premix (0.04 μCi of UDP-[^14C]GalNAc (ICN), 1.89 mM cold UDP-GalNAc, 28.6 mM pyruvate, 286 mM glycine, pH 8.7, 5 μl of 20 mM NAD), and 11.25 μl of protein diluted in Johnston buffer. Appropriate amounts of protein were used in each reaction to stay within the predetermined linear range of the assay. Assays were performed as for UDP-Gal, with a TLC run-time of 10 h and quantified as described for UDP-Gal.
# (§2) For analysis by HPLC, protein samples were diluted with glycine buffer (100 mM glycine, pH 8.7) to a final volume of 7.5 μl. For each reaction, 2.5 μl of 20 mM NAD+, and 2.5 il of premix (3.3 mM UDP-GalNAc, and 500 mM glycine, pH 8.7) were added, for a final reaction volume of 12.5 μl. Assay mixtures were incubated at 37° C. for 30 min before stopping by addition of 2.5 volumes of ice-cold 100% methanol. Samples were vortexed, spun and dried as for UDP-Gal HPLC assays, and resuspended in 750 μl ddH2O. The suspension was added to an 0.2 μm nylon micro-spin filter tube, and spun for approximately 2.5 min at 4000 g. An aliquot of 20 μl was then analyzed by HPLC.
# HPLC Analysis of Carbohydrates: Carbohydrate detection by HPLC was based on the methods of Smits (1998) and de Koning (1992). HPLC analysis was carried out on a DX600 HPLC system (Dionex, Sunnyvale, CA) consisting of a Dionex AS50 autosampler, a Dionex GP50 gradient pump, and a Dionex ED50 electrochemical detector. Carbohydrates were separated on a CarboPac PA10 column, 250×4 mm, with a CarboPac PA10 guard column, 50×4 mm, placed before the analysis column, and a borate trap placed after. […]
# The ED50 detector consisted of a gold electrode and a pH-Ag/AgCl reference electrode for signal detection by integrated amperometry. […] Carbohydrates were quantified using PeakNet software version 6.4 (Dionex) and based on integration of peak areas with comparison to standards. […]
# [4] = system: UDP-gal/UDP-glc interconversion; assay: In vitro UDP-gal activity assays on protein extracts from transfected ldlD cells; format: biochemical; conditions: protein extracts of stably transfected ldlD cells, CMV promoter, FIG. 3 and 5
# Protocol: (§3) In Vitro Assays for UDP-Gal: Aliquots of each purified enzyme from Example lwere stored in 50% glycerol with 4 mM NAD+ in liquid nitrogen, while crude extracts were stored at −80° C. until needed. All crude extracts were passed through Micro biospin 30 columns (Biorad) before being assayed for enzyme activity. Assays to determine the level of GALE activity with respect to UDP-Gal were performed essentially as previously described in Thoden et al. J Biol Chem Jul 26; 277(30):27528-34 (2002). […] For radioactive assay, conversion of UDP-Gal to UDP-Glc was measured in a 12.5-μl reaction containing 2.5 μl of premix (0.05 μCi of UDP-[^14C]Gal (Amersham Biosciences), […] cold UDP-Gal, 0.2 mM glycine buffer, pH 8.7), 2.5 μl of 20 mM NAD+, and 7.5 μl of purified protein diluted in Johnston buffer (20 mM HEPES/KOH, pH 7.5, 1 mM dithiothreitol, and 0.3 mg of bovine serum albumin/ml). Appropriate amounts of protein were used in each reaction in order to stay within the predetermined linear range of the assay. Reactions were incubated at 37° C for 30 min and were stopped by boiling at 100° C. for 10 min. […] Images were visualized with a Typhoon 9200 variable mode imager and quantified using ImageQuant software (both from Amersham Biosciences). Percent conversion was determined by dividing the product signal by the total signal and multiplying by 100. […] A 15 μl aliquot was then analyzed by HPLC. […]
# [5] = system: UDP-galNAc/UDP-glcNAc interconversion; assay: UDP-GalNAc activity of GALE alleles expressed in ldlD cells; format: biochemical; conditions: enzyme expressed in ldlD cells, FIG. 6
# Protocol: as §1, §2
# In this experiment, ldlD cells expressing WThGALE were used as a positive control, and ldlD cells expressing backbone alone were used as a negative control.
# [6] = system: UDP-gal/UDP-glc interconversion; assay: In vitro assay for UDP-Gal, purified enzymes; format: biochemical; conditions: purified enzyme expressed in Pichia pastoris, FIG. 1
# Protocol: as §3
Molecule,galactose concentration at which cells experience toxicity [1],galactose levels with no apparent toxicity [2] [mM],ability to interconvert UDP-GalNAc and UDP-GlcNAc [3],activity with regard to UDP-gal/UDP-glc interconversion [4],activity with regard to UDP-galNAc/UDP-glcNAc interconversion [5],UDP-Gal activity (UDP-Gal/UDP-Glc interconversion) [6],"UDP-GalNAc activity, % of that seen in WT hGALE [3] [%]",activity with regard to UDP-galNAc/UDP-glcNAc interconversion ([5]; listed as C307Y hGALE)
O=C[C@H](O)[C@@H](O)[C@@H](O)[C@H](O)CO [galactose],greater than 75 μM,≤ 10,–,–,–,–,–,–
B1,–,–,no ability,active,not significantly active,–,–,–
B2,–,–,well,–,very active,well,–,–
B3,–,–,–,active,reduced to levels close to those seen in ldld cells expressing backbone alone; also recorded: reduced to levels close to those seen in IdiD cells expressing backbone alone,maintains wildtype levels,2.30,not significantly active
